# Assay results published in article doi:10.1101/2024.01.07.574580.
# What was measured:
# [1] = target: YY1 cellular transcription factor (UniProt P25490); test: co-immunoprecipitation (FLAG-EBNA-LP IP, YY1 immunoblot, band signal quantified); details: 50% IP lanes; trans-complemented LPKO LCLs from total B cells; parent: 1.0
# [2] = target: YY1 cellular transcription factor (UniProt P25490); test: co-immunoprecipitation (YY1 IP, FLAG-EBNA-LP immunoblot, band signal quantified); details: 50% IP lanes; trans-complemented LPKO LCLs; parent: 1
# UniProt P25490, sequence (P25490 whole entry): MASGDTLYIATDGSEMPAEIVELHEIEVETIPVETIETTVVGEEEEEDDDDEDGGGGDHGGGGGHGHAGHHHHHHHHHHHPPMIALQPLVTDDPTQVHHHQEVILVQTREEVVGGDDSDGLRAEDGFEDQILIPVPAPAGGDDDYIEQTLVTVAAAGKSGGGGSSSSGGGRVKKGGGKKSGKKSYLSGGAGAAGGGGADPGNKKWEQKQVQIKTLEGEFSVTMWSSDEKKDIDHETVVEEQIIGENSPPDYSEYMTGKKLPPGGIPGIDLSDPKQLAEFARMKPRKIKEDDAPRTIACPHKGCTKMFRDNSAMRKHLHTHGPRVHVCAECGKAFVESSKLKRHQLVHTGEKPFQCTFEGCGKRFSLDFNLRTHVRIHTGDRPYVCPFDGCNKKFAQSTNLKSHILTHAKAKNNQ
substance,measurement,setting,value
"FLAG-EBNA-LP, wild type (B95-8), four W domains W:L25A; W:L28A; W:L29A; Y:L13A; Y:L17A; Y:L18A",response,[1],0.01
same,response,[2],0
